This is an account of results in PMC8334348.

As usually defined, the stoichiometry N is the number of molecules, sites or subunits per partner or assembly.

The target of this experiment is Brucella abortus peptidoglycan hydrolase inhibitor A (PhiA), mature periplasmic form (Brucella abortus). Nature of the experiment: SEC-MALS. On the technique in general: Size exclusion chromatography separates by hydrodynamic size, large species first.

Take “Brucella abortus peptidoglycan hydrolase inhibitor A (PhiA), mature periplasmic form (natural protein)”: the stoichiometry N was 4.
